Broadly, the IC50 is the concentration at which inhibition is half-maximal. Lower therefore signals greater potency in that assay.

Test [1] concerns the target T1, αvβ3 integrin (human, UniProt P06756 31-1048; P05106 27-788).
T1 construct: Native detergent-extracted heterodimer, adsorbed to microtiter wells; also called integrin αvβ3; purified human αvβ3
Briefly: competition ELISA, displacement of biotinylated vitronectin (10 nM) from immobilized αvβ3 (FIG. 4A). As for the experimental part:
(§1) Briefly, proteins were dialyzed into 0.1 M NaHCO₃, 0.1 M NaCl. N-hydroxysuccinimido-LC-biotin (Pierce) was dissolved at 1 mg/mL in DMSO and added to the protein at a ratio of 0.1 mg biotin per 1 mg protein. The reaction was allowed to rotate at room temperature for 2 hours. Biotinylated proteins were dialyzed into phosphate-buffered saline and their concentrations determined by absorbance at 280 nm. […] Absorbance was read at 405 nm.
(In an ELISA, binding on a coated surface is turned into a signal by an enzyme label.)

Test [2] addresses T1, αvβ3 integrin. The test is described as follows: competition ELISA, displacement of biotinylated fibrinogen (6 nM) from immobilized αvβ3 (FIG. 4B). As for the experimental part:
as §1

The next test deals with T2, αIIbβ3 (UniProt P08514 32-1039; P05106 27-788).
T2 construct: Bought purified protein, adsorbed to microtiter wells; also called integrin αIIbβ3; GPIIbIIIa
The test is described as follows: competition ELISA, displacement of biotinylated fibrinogen (6 nM) from immobilized αIIbβ3 (FIG. 4C). As for the experimental part:
An estimate of the maximum absorbance value was determined for each ligand/integrin pair in the absence of competitor. The baseline absorbance value was determined by adding 5 mM EDTA to the incubation buffer.
as §1

T1 sequence (P06756 31-1048, form in doubt, chain 1 of 2): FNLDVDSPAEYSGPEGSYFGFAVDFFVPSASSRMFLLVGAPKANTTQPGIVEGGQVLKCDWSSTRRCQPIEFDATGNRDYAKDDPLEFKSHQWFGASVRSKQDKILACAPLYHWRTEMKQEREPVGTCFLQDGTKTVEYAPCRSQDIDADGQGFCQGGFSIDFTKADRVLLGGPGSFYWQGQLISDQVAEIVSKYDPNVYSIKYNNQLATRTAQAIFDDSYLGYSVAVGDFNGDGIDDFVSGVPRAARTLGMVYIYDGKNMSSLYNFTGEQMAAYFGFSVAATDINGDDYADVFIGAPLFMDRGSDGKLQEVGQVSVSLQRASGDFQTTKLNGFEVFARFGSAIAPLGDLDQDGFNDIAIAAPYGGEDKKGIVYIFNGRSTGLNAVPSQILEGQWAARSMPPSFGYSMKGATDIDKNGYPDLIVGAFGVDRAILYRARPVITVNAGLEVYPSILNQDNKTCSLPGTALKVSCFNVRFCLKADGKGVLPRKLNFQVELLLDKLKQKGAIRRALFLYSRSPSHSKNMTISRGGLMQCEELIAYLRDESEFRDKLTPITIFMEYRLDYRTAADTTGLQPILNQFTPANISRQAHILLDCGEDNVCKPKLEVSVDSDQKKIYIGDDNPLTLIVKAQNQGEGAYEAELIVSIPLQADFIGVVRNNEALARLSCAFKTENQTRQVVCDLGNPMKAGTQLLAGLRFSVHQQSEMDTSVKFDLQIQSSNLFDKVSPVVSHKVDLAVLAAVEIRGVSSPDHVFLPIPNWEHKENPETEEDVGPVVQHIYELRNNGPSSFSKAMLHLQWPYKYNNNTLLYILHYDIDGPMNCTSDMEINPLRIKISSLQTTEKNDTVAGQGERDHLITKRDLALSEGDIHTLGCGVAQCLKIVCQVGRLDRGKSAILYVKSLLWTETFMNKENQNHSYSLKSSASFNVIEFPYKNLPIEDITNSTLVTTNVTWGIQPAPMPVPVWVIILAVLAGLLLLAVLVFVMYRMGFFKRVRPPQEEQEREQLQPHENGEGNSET
T1 sequence (P05106 27-788, form in doubt, chain 2 of 2): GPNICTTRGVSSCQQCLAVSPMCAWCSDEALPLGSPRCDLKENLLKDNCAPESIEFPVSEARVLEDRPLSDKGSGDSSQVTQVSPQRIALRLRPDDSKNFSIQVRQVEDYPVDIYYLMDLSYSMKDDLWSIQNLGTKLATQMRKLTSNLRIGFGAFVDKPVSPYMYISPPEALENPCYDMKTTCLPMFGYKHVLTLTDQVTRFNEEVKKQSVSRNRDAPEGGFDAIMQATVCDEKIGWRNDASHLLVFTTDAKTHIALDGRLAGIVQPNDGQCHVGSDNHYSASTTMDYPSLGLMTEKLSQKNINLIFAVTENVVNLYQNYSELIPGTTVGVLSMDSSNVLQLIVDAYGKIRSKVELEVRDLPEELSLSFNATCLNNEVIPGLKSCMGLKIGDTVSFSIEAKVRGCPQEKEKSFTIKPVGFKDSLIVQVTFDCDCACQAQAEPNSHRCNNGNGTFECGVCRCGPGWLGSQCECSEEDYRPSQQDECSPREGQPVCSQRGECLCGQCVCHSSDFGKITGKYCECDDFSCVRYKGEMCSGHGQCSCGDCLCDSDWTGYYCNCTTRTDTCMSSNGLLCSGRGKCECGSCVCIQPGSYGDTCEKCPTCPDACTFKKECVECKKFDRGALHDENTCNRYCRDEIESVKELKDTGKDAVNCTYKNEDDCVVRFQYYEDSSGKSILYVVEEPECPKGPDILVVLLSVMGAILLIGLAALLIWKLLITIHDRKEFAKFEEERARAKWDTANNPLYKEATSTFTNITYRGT

B1: Vitronectin (ligand, human, UniProt P04004 20-478, looked up)
chain: DQESCKGRCTEGFNVDKKCQCDELCSYYQSCCTDYTAECKPQVTRGDVFTMPEDEYTVYDDGEEKNNATVHEQVGGPSLTSDLQAQSKGNPEQTPVLKPEEEAPAPEVGASKPEGIDSRPETLHPGRPQPPAEEELCSGKPFDAFTDLKNGSLFAFRGQYCYELDEKAVRPGYPKLIRDVWGIEGPIDAAFTRINCQGKTYLFKGSQYWRFEDGVLDPDYPRNISDGFDGIPDNVDAALALPAHSYSGRERVYFFKGKQYWEYQFQHQPSQEECEGSSLSAVFEHFAMMQRDSWEDIFELLFWGRTSAGTRQPQFISRDWHGVPGQVDAAMAGRIYISGMAPRPSLAKKQRFRHRNRKGYRSQRGHSRGRNQNSRRPSRATWLSLFSSEESNLGANNYDDYRMDWLVPATCEPIQSVFFFSGDKYYRVNLRTRRVDTVDPPYPRSIAQYWLGCPAPGHL
notes: also called biotinylated vitronectin; unmodified vitronectin
Consider B1, for which the concentration for half-maximal inhibition (IC50) in the test with αvβ3 integrin [1] turned out to be 59 nM.

B2: Fibrinogen (ligand)
chain 1: ADSGEGDFLAEGGGVRGPRVVERHQSACKDSDWPFCSDEDWNYKCPSGCRMKGLIDEVNQDFTNRINKLKNSLFEYQKNNKDSHSLTTNIMEILRGDFSSANNRDNTYNRVSEDLRSRIEVLKRKVIEKVQHIQLLQKNVRAQLVDMKRLEVDIDIKIRSCRGSCSRALAREVDLKDYEDQQKQLEQVIAKDLLPSRDRQHLPLIKMKPVPDLVPGNFKSQLQKVPPEWKALTDMPQMRMELERPGGNEITRGGSTSYGTGSETESPRNPSSAGSWNSGSSGPGSTGNRNPGSSGTGGTATWKPGSSGPGSTGSWNSGSSGTGSTGNQNPGSPRPGSTGTWNPGSSERGSAGHWTSESSVSGSTGQWHSESGSFRPDSPGSGNARPNNPDWGTFEEVSGNVSPGTRREYHTEKLVTSKGDKELRTGKEKVTSGSTTTTRRSCSKTVTKTVIGPDGHKEVTKEVVTSEDGSDCPEAMDLGTLSGIGTLDGFRHRHPDEAAFFDTASTGKTFPGFFSPMLGEFVSETESRGSESGIFTNTKESSSHHPGIAEFPSRGKSSSYSKQFTSSTSYNRGDSTFESKSYKMADEAGSEADHEGTHSTKRGHAKSRPV
chain 2: QGVNDNEEGFFSARGHRPLDKKREEAPSLRPAPPPISGGGYRARPAKAAATQKKVERKAPDAGGCLHADPDLGVLCPTGCQLQEALLQQERPIRNSVDELNNNVEAVSQTSSSSFQYMYLLKDLWQKRQKQVKDNENVVNEYSSELEKHQLYIDETVNSNIPTNLRVLRSILENLRSKIQKLESDVSAQMEYCRTPCTVSCNIPVVSGKECEEIIRKGGETSEMYLIQPDSSVKPYRVYCDMNTENGGWTVIQNRQDGSVDFGRKWDPYKQGFGNVATNTDGKNYCGLPGEYWLGNDKISQLTRMGPTELLIEMEDWKGDKVKAHYGGFTVQNEANKYQISVNKYRGTAGNALMDGASQLMGENRTMTIHNGMFFSTYDRDNDGWLTSDPRKQCSKEDGGGWWYNRCHAANPNGRYYWGGQYTWDMAKHGTDDGVVWMNWKGSWYSMRKMSMKIRPFFPQQ
chain 3: YVATRDNCCILDERFGSYCPTTCGIADFLSTYQTKVDKDLQSLEDILHQVENKTSEVKQLIKAIQLTYNPDESSKPNMIDAATLKSRKMLEEIMKYEASILTHDSSIRYLQEIYNSNNQKIVNLKEKVAQLEAQCQEPCKDTVQIHDITGKDCQDIANKGAKQSGLYFIKPLKANQQFLVYCEIDGSGNGWTVFQKRLDGSVDFKKNWIQYKEGFGHLSPTGTTEFWLGNEKIHLISTQSAIPYALRVELEDWNGRTSTADYAMFKVGPEADKYRLTYAYFAGGDAGDAFDGFDFGDDPSDKFFTSHNGMQFSTWDNDNDKFEGNCAEQDGSGWWMNKCHAGHLNGVYYQGGTYSKASTPNGYDNGIIWATWKTRWYSMKKTTMKIIPFNRLTIGEGQQHHLGGAKQAGDV
notes: also called biotinylated fibrinogen; unmodified fibrinogen
For B2, the half-maximal inhibitory concentration (IC50) in the test with αvβ3 integrin [2] is 43 nM; with αIIbβ3, 15 nM.
